14 molecules from patent publication US20210040155A1 (RHYTHM PHARMACEUTICALS, published 2021) can be followed below.

B1: Ac-Arg-cyclo[Cys-D-Leu-His-D-Phe-Arg-Trp-Cys]-NH2 (peptide)
peptide: Ac-RC[dL]H[dF]RWC-NH2
modifications: disulfide 2-8
B2: Ac-Arg-cyclo[Cys-D-Ala-Pro-D-Phe(p-F)-Arg-Trp-Cys]-NH2 (peptide)
peptide: Ac-RC[dA]P[dPhe(4-F)]RWC-NH2
modifications: disulfide 2-8
SMILES: CC(=O)N[C@@H](CCCNC(=N)N)C(=O)N[C@H]1CSSC[C@@H](C(N)=O)NC(=O)[C@H](Cc2c[nH]c3ccccc23)NC(=O)[C@H](CCCNC(=N)N)NC(=O)[C@@H](Cc2ccc(F)cc2)NC(=O)[C@@H]2CCCN2C(=O)[C@@H](C)NC1=O
B3: Ac-Arg-cyclo[Cys-D-Val-His-D-Phe-Arg-Trp-Cys]-NH2 (peptide)
peptide: Ac-RC[dV]H[dF]RWC-NH2
modifications: disulfide 2-8
B4: Ac-Arg-cyclo[Cys-D-Ala-Tyr-D-Phe-Arg-Trp-Cys]-NH2 (peptide)
peptide: Ac-RC[dA]Y[dF]RWC-NH2
modifications: disulfide 2-8
SMILES: CC(=O)N[C@@H](CCCNC(=N)N)C(=O)N[C@H]1CSSC[C@@H](C(N)=O)NC(=O)[C@H](Cc2c[nH]c3ccccc23)NC(=O)[C@H](CCCNC(=N)N)NC(=O)[C@@H](Cc2ccccc2)NC(=O)[C@H](Cc2ccc(O)cc2)NC(=O)[C@@H](C)NC1=O
B5: Ac-Arg-cyclo[Cys-D-Ala-Pro-D-Phe-Arg-Trp-Cys]-NH2 (peptide)
peptide: Ac-RC[dA]P[dF]RWC-NH2
modifications: disulfide 2-8
SMILES: CC(=O)N[C@@H](CCCNC(=N)N)C(=O)N[C@H]1CSSC[C@@H](C(N)=O)NC(=O)[C@H](Cc2c[nH]c3ccccc23)NC(=O)[C@H](CCCNC(=N)N)NC(=O)[C@@H](Cc2ccccc2)NC(=O)[C@@H]2CCCN2C(=O)[C@@H](C)NC1=O
B6: Ac-Arg-cyclo[Cys-D-Ala-Trp-D-Phe-Arg-Trp-Cys]-NH2 (peptide)
peptide: Ac-RC[dA]W[dF]RWC-NH2
modifications: disulfide 2-8
SMILES: CC(=O)N[C@@H](CCCNC(=N)N)C(=O)N[C@H]1CSSC[C@@H](C(N)=O)NC(=O)[C@H](Cc2c[nH]c3ccccc23)NC(=O)[C@H](CCCNC(=N)N)NC(=O)[C@@H](Cc2ccccc2)NC(=O)[C@H](Cc2c[nH]c3ccccc23)NC(=O)[C@@H](C)NC1=O
B7: Ac-Arg-cyclo[Cys-D-Ala-Asn-D-Phe-Arg-Trp-Cys]-NH2 (peptide)
peptide: Ac-RC[dA]N[dF]RWC-NH2
modifications: disulfide 2-8
SMILES: CC(=O)N[C@@H](CCCNC(=N)N)C(=O)N[C@H]1CSSC[C@@H](C(N)=O)NC(=O)[C@H](Cc2c[nH]c3ccccc23)NC(=O)[C@H](CCCNC(=N)N)NC(=O)[C@@H](Cc2ccccc2)NC(=O)[C@H](CC(N)=O)NC(=O)[C@@H](C)NC1=O
B8: Ac-Arg-cyclo[hCys-D-Ala-D-Phe-Arg-Trp-Cys]-NH2 (peptide)
peptide: Ac-R[hCys][dA][dF]RWC-NH2
modifications: disulfide 2-7
SMILES: CC(=O)N[C@@H](CCCNC(=N)N)C(=O)N[C@H]1CCSSC[C@@H](C(N)=O)NC(=O)[C@H](Cc2c[nH]c3ccccc23)NC(=O)[C@H](CCCNC(=N)N)NC(=O)[C@@H](Cc2ccccc2)NC(=O)[C@@H](C)NC1=O
B9: Ac-Arg-cyclo[hCys-D-Ala-D-Phe-Arg-Trp-Pen]-NH2 (peptide)
peptide: Ac-R[hCys][dA][dF]RW[Pen]-NH2
modifications: disulfide 2-7
SMILES: CC(=O)N[C@@H](CCCNC(=N)N)C(=O)N[C@H]1CCSSC(C)(C)[C@@H](C(N)=O)NC(=O)[C@H](Cc2c[nH]c3ccccc23)NC(=O)[C@H](CCCNC(=N)N)NC(=O)[C@@H](Cc2ccccc2)NC(=O)[C@@H](C)NC1=O
B10: Ac-Arg-cyclo[Cys-D-Ala-Arg-D-Phe-Arg-Trp-Cys]-NH2 (peptide)
peptide: Ac-RC[dA]R[dF]RWC-NH2
modifications: disulfide 2-8
SMILES: CC(=O)N[C@@H](CCCNC(=N)N)C(=O)N[C@H]1CSSC[C@@H](C(N)=O)NC(=O)[C@H](Cc2c[nH]c3ccccc23)NC(=O)[C@H](CCCNC(=N)N)NC(=O)[C@@H](Cc2ccccc2)NC(=O)[C@H](CCCNC(=N)N)NC(=O)[C@@H](C)NC1=O
B11: Ac-Arg-cyclo[Cys-D-Ile-His-D-Phe-Arg-Trp-Cys]-NH2 (peptide)
peptide: Ac-RC[dI]H[dF]RWC-NH2
modifications: disulfide 2-8
B12: Ac-Arg-cyclo[hCys-Ala-D-Phe-Arg-Trp-Cys]-NH2 (peptide)
peptide: Ac-R[hCys]A[dF]RWC-NH2
modifications: disulfide 2-7
SMILES: CC(=O)N[C@@H](CCCNC(=N)N)C(=O)N[C@H]1CCSSC[C@@H](C(N)=O)NC(=O)[C@H](Cc2c[nH]c3ccccc23)NC(=O)[C@H](CCCNC(=N)N)NC(=O)[C@@H](Cc2ccccc2)NC(=O)[C@H](C)NC1=O
B13: Ac-Glu-cyclo[Cys-Ala-His-D-Phe-Arg-Trp-Cys]-NH2 (peptide)
peptide: Ac-ECAH[dF]RWC-NH2
modifications: disulfide 2-8
SMILES: CC(=O)N[C@@H](CCC(=O)O)C(=O)N[C@H]1CSSC[C@@H](C(N)=O)NC(=O)[C@H](Cc2c[nH]c3ccccc23)NC(=O)[C@H](CCCNC(=N)N)NC(=O)[C@@H](Cc2ccccc2)NC(=O)[C@H](Cc2c[nH]cn2)NC(=O)[C@H](C)NC1=O
B14: Ac-Arg-cyclo[Cys-D-Ala-Gln-D-Phe-Arg-Trp-Cys]-NH2 (peptide)
peptide: Ac-RC[dA]Q[dF]RWC-NH2
modifications: disulfide 2-8
SMILES: CC(=O)N[C@@H](CCCNC(=N)N)C(=O)N[C@H]1CSSC[C@@H](C(N)=O)NC(=O)[C@H](Cc2c[nH]c3ccccc23)NC(=O)[C@H](CCCNC(=N)N)NC(=O)[C@@H](Cc2ccccc2)NC(=O)[C@H](CCC(N)=O)NC(=O)[C@@H](C)NC1=O

Bridge positions count the residues as written; N and C are the ends. Square brackets hold non-standard residues; d marks the D form. dPhe(4-F) = N[C@H](Cc1ccc(F)cc1)C(=O)O; Pen = CC(C)(S)[C@H](N)C(=O)O; hCys = N[C@@H](CCS)C(=O)O

Sequence of melanocortin-1 receptor (Q01726 whole entry): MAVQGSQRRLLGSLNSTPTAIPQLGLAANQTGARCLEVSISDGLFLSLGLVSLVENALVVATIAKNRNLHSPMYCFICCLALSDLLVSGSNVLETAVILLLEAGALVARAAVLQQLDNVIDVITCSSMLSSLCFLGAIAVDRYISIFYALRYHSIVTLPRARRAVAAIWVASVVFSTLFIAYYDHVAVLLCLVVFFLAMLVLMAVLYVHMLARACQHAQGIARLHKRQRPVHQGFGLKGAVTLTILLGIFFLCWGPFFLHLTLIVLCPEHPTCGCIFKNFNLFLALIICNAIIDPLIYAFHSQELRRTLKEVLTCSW
Sequence of melanocortin-5 receptor (P33032 whole entry): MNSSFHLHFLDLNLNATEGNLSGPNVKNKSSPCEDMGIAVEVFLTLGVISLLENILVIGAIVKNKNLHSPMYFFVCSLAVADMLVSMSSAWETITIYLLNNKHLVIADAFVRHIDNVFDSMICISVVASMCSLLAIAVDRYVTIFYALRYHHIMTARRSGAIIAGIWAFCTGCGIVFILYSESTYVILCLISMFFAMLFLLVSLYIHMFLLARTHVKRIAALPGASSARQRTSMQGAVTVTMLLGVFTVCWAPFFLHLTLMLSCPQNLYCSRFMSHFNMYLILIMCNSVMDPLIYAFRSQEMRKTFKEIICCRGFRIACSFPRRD

The first experiment has as its target melanocortin-1 receptor (human, UniProt Q01726 1-317). The experiment is described as follows: cell-based or functional assay.
For the molecule B1, the “Ratios of EC50 values MC 1/4 (MC1R against MC4R)” value (shortened to “Ratios … (MC1R against MC4R)”) is 0.68 ratio and the “cAMP Assay (EC-50)” value came out at 0.47 nM.

Regarding B2, the “Ratios … (MC1R against MC4R)” value came out at 7 ratio and the “cAMP Assay (EC-50)” value worked out at 169 nM.

As for B3, the “Ratios … (MC1R against MC4R)” value was 0.93 ratio and the “cAMP Assay (EC-50)” value stood at 1.25 nM.

B4: the “Ratios … (MC1R against MC4R)” value stood at 6.67 ratio and the “cAMP Assay (EC-50)” value was 301 nM.

With B5, the “Ratios … (MC1R against MC4R)” value is 5 ratio and the “cAMP Assay (EC-50)” value came out at 280 nM.

In the case of B6, the “Ratios … (MC1R against MC4R)” value worked out at 8 ratio and the “cAMP Assay (EC-50)” value turned out to be 273 nM.

B7: the “Ratios … (MC1R against MC4R)” value is 90 ratio and the “cAMP Assay (EC-50)” value worked out at 248 nM.

Regarding B8, the “Ratios … (MC1R against MC4R)” value was 120 ratio and the “cAMP Assay (EC-50)” value is 888 nM.

As to B9, the “Ratios … (MC1R against MC4R)” value came to 15 ratio and the “cAMP Assay (EC-50)” value stood at 195 nM.

In the case of B10, the “Ratios … (MC1R against MC4R)” value amounted to 2.31 ratio and the “cAMP Assay (EC-50)” value turned out to be 6.2 nM.

In the case of B11, the “Ratios … (MC1R against MC4R)” value was 0.69 ratio and the “cAMP Assay (EC-50)” value turned out to be 0.69 nM.

Take B12: the “Ratios … (MC1R against MC4R)” value is 15 ratio and the “cAMP Assay (EC-50)” value stood at 4 nM.

On to B13, for which the “Ratios … (MC1R against MC4R)” value was above 3 ratio and the “cAMP Assay (EC-50)” value turned out to be 1.7 nM.

As to B14, the “Ratios … (MC1R against MC4R)” value came to 40 ratio and the “cAMP Assay (EC-50)” value was 71 nM.

For the next experiment, the target named is melanocortin-3 receptor (human, UniProt P41968 1-323). The experiment is described as follows: cell-based or functional assay.
Sequence of melanocortin-3 receptor (P41968 whole entry): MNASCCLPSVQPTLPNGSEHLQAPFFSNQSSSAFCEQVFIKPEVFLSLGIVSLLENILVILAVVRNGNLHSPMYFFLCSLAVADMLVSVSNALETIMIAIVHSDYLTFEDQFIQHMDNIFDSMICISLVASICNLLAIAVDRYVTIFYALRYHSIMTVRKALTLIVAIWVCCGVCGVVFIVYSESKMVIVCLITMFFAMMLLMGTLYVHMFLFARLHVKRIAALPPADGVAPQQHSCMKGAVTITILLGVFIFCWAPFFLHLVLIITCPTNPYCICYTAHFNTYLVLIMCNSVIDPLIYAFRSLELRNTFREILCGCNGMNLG
Consider B1, for which the “Ratios of EC50 values MC 3/4 (MC3R against MC4R)” value (shortened to “Ratios … (MC3R against MC4R)”) amounted to 1.13 ratio and the “cAMP Assay (EC-50)” value came to 0.79 nM.

For the molecule B2, the “Ratios … (MC3R against MC4R)” value is above 400 ratio and the “cAMP Assay (EC-50)” value is above 10000 nM.

For the molecule B3, the “Ratios … (MC3R against MC4R)” value is 1.19 ratio and the “cAMP Assay (EC-50)” value came to 1.59 nM.

With B4, the “Ratios … (MC3R against MC4R)” value was above 22.2 ratio and the “cAMP Assay (EC-50)” value is above 1000 nM.

In the case of B5, the “Ratios … (MC3R against MC4R)” value is above 200 ratio and the “cAMP Assay (EC-50)” value was above 10000 nM.

Turning to B6, the “Ratios … (MC3R against MC4R)” value is above 290 ratio and the “cAMP Assay (EC-50)” value is above 10000 nM.

On to B7, for which the “Ratios … (MC3R against MC4R)” value was 30 ratio and the “cAMP Assay (EC-50)” value stood at 81 nM.

For B8, the “Ratios … (MC3R against MC4R)” value came to 420 ratio and the “cAMP Assay (EC-50)” value worked out at 3160 nM.

In the case of B9, the “Ratios … (MC3R against MC4R)” value was determined as 17 ratio and the “cAMP Assay (EC-50)” value amounted to 233 nM.

For B10, the “Ratios … (MC3R against MC4R)” value was 1.45 ratio and the “cAMP Assay (EC-50)” value was found to be 3.9 nM.

Consider B11, for which the “Ratios … (MC3R against MC4R)” value was 0.96 ratio and the “cAMP Assay (EC-50)” value came out at 0.96 nM.

Consider B12, for which the “Ratios … (MC3R against MC4R)” value was 3.8 ratio and the “cAMP Assay (EC-50)” value was 1 nM.

Regarding B13, the “Ratios … (MC3R against MC4R)” value was above 20 ratio and the “cAMP Assay (EC-50)” value was 9.9 nM.

Regarding B14, the “Ratios … (MC3R against MC4R)” value came out at 5 ratio and the “cAMP Assay (EC-50)” value stood at 8.6 nM.

A further experiment deals with melanocortin-4 receptor (human, UniProt P32245 1-332). Description: cell-based or functional assay.
Sequence of melanocortin-4 receptor (P32245 whole entry): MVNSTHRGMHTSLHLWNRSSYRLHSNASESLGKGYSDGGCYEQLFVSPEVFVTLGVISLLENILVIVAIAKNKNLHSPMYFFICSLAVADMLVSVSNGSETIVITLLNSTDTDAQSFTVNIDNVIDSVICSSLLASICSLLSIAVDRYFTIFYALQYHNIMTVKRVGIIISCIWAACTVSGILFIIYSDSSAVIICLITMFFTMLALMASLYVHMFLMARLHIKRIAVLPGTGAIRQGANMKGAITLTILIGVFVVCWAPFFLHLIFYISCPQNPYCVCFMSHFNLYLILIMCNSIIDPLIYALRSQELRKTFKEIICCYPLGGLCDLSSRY
For the molecule B1, the “cAMP Assay (EC-50)” value came to 0.7 nM.

Regarding B2, the “cAMP Assay (EC-50)” value came out at 24 nM.

For B3, the “cAMP Assay (EC-50)” value worked out at 1.34 nM.

Take B4: the “cAMP Assay (EC-50)” value was 45.1 nM.

B5: the “cAMP Assay (EC-50)” value was 56 nM.

Turning to B6, the “cAMP Assay (EC-50)” value amounted to 34 nM.

As for B7, the “cAMP Assay (EC-50)” value was found to be 3 nM.

With B8, the “cAMP Assay (EC-50)” value amounted to 7.5 nM.

With B9, the “cAMP Assay (EC-50)” value was found to be 13.7 nM.

As to B10, the “cAMP Assay (EC-50)” value is 2.7 nM.

With B11, the “cAMP Assay (EC-50)” value was 1 nM.

In the case of B12, the “cAMP Assay (EC-50)” value came to 0.26 nM.

Consider B13, for which the “cAMP Assay (EC-50)” value is below 0.5 nM.

Regarding B14, the “cAMP Assay (EC-50)” value stood at 1.6 nM.

A further experiment concerns the target melanocortin-5 receptor (human, UniProt P33032 1-325). Description: cell-based or functional assay.
For B1, the “Ratios of EC50 values MC 5/4 (MC5R against MC4R)” value (shortened to “Ratios … (MC5R against MC4R)”) came out at 130 ratio and the “cAMP Assay (EC-50)” value worked out at 91 nM.

On to B2, for which the “Ratios … (MC5R against MC4R)” value stood at 12 ratio and the “cAMP Assay (EC-50)” value was 283 nM.

Turning to B3, the “Ratios … (MC5R against MC4R)” value amounted to 584 ratio and the “cAMP Assay (EC-50)” value turned out to be 782 nM.

As to B5, the “Ratios … (MC5R against MC4R)” value was 13 ratio and the “cAMP Assay (EC-50)” value stood at 707 nM.

Consider B6, for which the “Ratios … (MC5R against MC4R)” value stood at 7 ratio and the “cAMP Assay (EC-50)” value was found to be 259 nM.

Take B7: the “Ratios … (MC5R against MC4R)” value came out at 530 ratio and the “cAMP Assay (EC-50)” value was 1490 nM.

For B8, the “Ratios … (MC5R against MC4R)” value was above 1340 ratio and the “cAMP Assay (EC-50)” value is above 10000 nM.

As for B9, the “Ratios … (MC5R against MC4R)” value was 159 ratio and the “cAMP Assay (EC-50)” value worked out at 2180 nM.

As to B11, the “Ratios … (MC5R against MC4R)” value is 420 ratio and the “cAMP Assay (EC-50)” value is 420 nM.

For B12, the “Ratios … (MC5R against MC4R)” value was determined as 161 ratio and the “cAMP Assay (EC-50)” value was 42 nM.

Consider B13, for which the “Ratios … (MC5R against MC4R)” value is above 2560 ratio and the “cAMP Assay (EC-50)” value amounted to 1280 nM.

For B14, the “Ratios … (MC5R against MC4R)” value was determined as 155 ratio and the “cAMP Assay (EC-50)” value stood at 255 nM.
